Measurements reported in paper PMC8605242, “Multiple variants of the human presequence translocase motor subunit Magmas govern the mitochondrial import” (The Journal of Biological Chemistry, 2021).

T1: GST-Magmas-1 (human, UniProt I3L3T0 1-145)
T1 construct: Magmas-1, human variant of Magmas with a unique N-terminal extension, full length; UniProt entry I3L3T0; vector pGEX-KG; also called GST tagged Magmas-1; source: E. coli (C41), purified
T1 sequence (looked up): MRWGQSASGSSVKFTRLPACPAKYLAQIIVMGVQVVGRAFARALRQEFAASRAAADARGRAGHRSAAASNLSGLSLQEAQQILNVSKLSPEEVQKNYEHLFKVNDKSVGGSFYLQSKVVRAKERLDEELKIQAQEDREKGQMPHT

T2: GST-Magmas (human, UniProt Q9Y3D7 1-125)
T2 construct: Magmas, human, full length; vector pGEX-KG; also called GST tagged Magmas; source: E. coli (C41), purified
T2 sequence (looked up): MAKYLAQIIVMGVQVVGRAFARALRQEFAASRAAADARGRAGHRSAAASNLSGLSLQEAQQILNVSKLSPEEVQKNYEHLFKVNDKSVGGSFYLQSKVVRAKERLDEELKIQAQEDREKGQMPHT

B1: DnaJC19J+T (domain or fragment)
chain: not shown
notes: DnaJC19, human J-protein, N-terminal truncation with the J-domain and predicted MTS (J + T), amino acids 34-112; also called hexahistidine tagged DnaJC19J+T
B2: DnaJC15J+T (domain or fragment)
chain: not shown
notes: DnaJC15, human J-protein, N-terminal truncation with the J-domain and predicted MTS (J + T), amino acids 69-146; also called hexahistidine tagged DnaJC15J+T

Columns and labels:
GST-Magmas-1 = molecular target: T1, GST-Magmas-1; experiment: pull-down; 1 μM GST alone or GST-Magmas variants held on beads, increasing concentrations of DnaJC19J+T or DnaJC15J+T, 45 min, 24 °C; 50 mM Tris-HCl pH 7.5, 100 mM KCl, 0.2% Triton-X 100, 10% glycerol, 1 mM PMSF; blocked with 0.1% BSA; SDS-PAGE, Coomassie, densitometry; conditions: both partners purified
GST-Magmas = molecular target: T2, GST-Magmas; experiment: as above; conditions: both partners purified
DnaJC19J+T = molecular target: B1; experiment: cell-based or functional assay
DnaJC15J+T = molecular target: B2; experiment: cell-based or functional assay
Chain of DnaJC15J+T (Q9Y5T4 69-146): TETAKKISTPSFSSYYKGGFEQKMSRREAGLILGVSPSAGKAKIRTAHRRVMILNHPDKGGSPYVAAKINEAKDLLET

Chain of DnaJC19J+T (Q96DA6 34-112): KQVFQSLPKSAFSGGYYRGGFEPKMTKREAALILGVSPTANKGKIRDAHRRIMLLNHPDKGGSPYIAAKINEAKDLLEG

| binding result (GST-Magmas-1) | binding result (GST-Magmas) | Binder | inhibition of the DnaJC19J+T-stimulated ATP hydrolysis of mortalin, single turnover assay, Mortalin-ATP : J-protein : Magmas variant 1:2:4 (DnaJC19J+T) [%] | inhibition of the DnaJC15J+T-stimulated ATP hydrolysis of mortalin, single turnover assay, Mortalin-ATP : J-protein : Magmas variant 1:2:4 (DnaJC15J+T) [%] |
| --- | --- | --- | --- | --- |
| binds | binds | B1 |  |  |
|  |  | hexahistidine tagged Magmas-2 (natural protein, human, UniProt I3L1U7 1-129, looked up) MAKYLAQIIVMGVQVVGRAFARALRQEFAASRAAADARGRAGHRSAAASNLSGLSLQEAQQILNVSKLSPEEVQKNYEHLFKVNDKSVGGSFYLQSKRSGLSMLPKLISNSWPQAILLPWPPKTLGLHA | > 90 | > 90 |
|  | binds | B2 |  |  |
